In publication PMC8939767 (Science Translational Medicine, 2022):
Where no end group is shown, it is not given here. The star is where a group is joined. Biotin = O=C1N[C@H]2[C@H](CS[C@H]2CCCCC(=O)*)N1

Columns and labels:
[1] = target: T1, HCoV-HKU1 stem peptide variant, 20-mer with 5 additional residues at the N-terminus (HCoV-HKU1 isolate N1 (AAT98580.1), UniProt Q5MQD0, biotin on the N-terminus); assay: BLI; settings: both partners purified
T1 construct: also called 20-mer (brick red); source: synthetic peptide
T1 chain: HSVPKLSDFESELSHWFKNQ

[2] = target: T2, HCoV-HKU1 stem peptide variant, 20-mer with 5 additional residues at the C-terminus (HCoV-HKU1 isolate N1 (AAT98580.1), UniProt Q5MQD0, biotin on the N-terminus); assay: BLI; settings: both partners purified
T2 construct: also called 20-mer (orange); source: synthetic peptide
T2 chain: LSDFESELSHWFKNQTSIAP

[3] = target: T3, HCoV-HKU1 25-residue S2 stem peptide (residues 1226-1250) (HCoV-HKU1 isolate N1 (AAT98580.1), UniProt Q5MQD0, biotin on the N-terminus); assay: BLI; settings: both partners purified
T3 construct: also called 25-mer (red); 25-mer S2 peptide from HCoV-HKU1; source: synthetic peptide
T3 chain: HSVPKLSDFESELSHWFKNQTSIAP

[4] = target: T4, HCoV-HKU1 soluble spike ectodomain protein (HCoV-HKU1, isolate N1 by the GenBank …, UniProt Q5MQD0); assay: BLI; settings: both partners purified
T4 construct: also called HCoV-HKU1 soluble spike protein; source: FreeStyle293-F, transfected, purified (Ni-NTA, SEC)

[5] = target: T5, HCoV-HKU1 spike protein, full length, expressed on 293T cells (HCoV-HKU1, isolate N1 by the GenBank …, UniProt Q5MQD0); assay: flow cytometry on cells; settings: one partner purified
T5 construct: source: HEK293T, transfected, on the cell surface
T5 sequence (Q5MQD0 13-1356): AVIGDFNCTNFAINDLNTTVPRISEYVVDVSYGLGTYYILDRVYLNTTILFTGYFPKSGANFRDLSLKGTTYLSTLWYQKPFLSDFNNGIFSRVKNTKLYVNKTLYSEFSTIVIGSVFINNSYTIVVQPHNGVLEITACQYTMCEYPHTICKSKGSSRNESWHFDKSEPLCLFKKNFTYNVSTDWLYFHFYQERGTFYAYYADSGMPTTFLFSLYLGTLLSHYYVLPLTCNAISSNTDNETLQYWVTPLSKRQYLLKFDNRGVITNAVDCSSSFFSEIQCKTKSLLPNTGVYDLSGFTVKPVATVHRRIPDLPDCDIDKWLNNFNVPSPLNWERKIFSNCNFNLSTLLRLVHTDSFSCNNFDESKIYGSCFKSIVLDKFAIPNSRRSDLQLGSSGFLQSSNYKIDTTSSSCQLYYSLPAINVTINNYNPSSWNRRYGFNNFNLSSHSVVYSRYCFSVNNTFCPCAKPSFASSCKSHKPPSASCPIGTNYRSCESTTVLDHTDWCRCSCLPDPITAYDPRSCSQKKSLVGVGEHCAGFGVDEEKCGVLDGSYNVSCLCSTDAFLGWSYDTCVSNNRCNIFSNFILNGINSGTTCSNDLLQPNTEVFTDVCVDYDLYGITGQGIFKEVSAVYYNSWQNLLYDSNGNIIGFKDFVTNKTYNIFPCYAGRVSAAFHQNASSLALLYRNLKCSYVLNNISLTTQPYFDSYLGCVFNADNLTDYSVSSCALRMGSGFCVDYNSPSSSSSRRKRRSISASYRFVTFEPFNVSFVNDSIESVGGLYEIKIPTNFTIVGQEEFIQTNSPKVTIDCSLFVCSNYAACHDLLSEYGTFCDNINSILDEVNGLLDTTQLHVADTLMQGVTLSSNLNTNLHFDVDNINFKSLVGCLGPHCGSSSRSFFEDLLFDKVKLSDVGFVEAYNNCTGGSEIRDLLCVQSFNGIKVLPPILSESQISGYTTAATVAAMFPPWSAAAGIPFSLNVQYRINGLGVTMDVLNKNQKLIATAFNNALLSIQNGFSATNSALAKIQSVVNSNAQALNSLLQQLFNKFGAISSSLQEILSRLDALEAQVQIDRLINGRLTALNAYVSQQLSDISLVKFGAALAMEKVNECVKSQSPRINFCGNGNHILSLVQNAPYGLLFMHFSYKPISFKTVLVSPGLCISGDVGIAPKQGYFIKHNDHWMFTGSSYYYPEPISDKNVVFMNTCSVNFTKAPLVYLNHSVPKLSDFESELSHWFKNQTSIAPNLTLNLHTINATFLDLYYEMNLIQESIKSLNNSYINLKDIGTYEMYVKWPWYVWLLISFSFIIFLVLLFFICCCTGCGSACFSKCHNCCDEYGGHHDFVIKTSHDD

[6] = target: T6, HCoV-HKU1 S2 95th 15-mer stem peptide (residues 1231-1245), biotinylated (HCoV-HKU1 isolate N1 (AAT98580.1), UniProt Q5MQD0); assay: ELISA; […], mAb in 1% BSA/PBST, […]; settings: both partners purified
T6 construct: also called 95th 15-mer peptide; HCoV-HKU1 95th 15-mer stem peptide; source: synthetic peptide (A&A Labs, Synthetic Biomolecules)
T6 chain: Biotin-LSDFESELSHWFKNQ

[7] = target: T7, SARS-CoV-2 S2 stem-helix 25-mer peptide, N-terminal biotinylated (wild type) (SARS-CoV-2, UniProt P0DTC2, biotin on the N-terminus); assay: BLI; […], Octet buffer (PBS plus 0.1% Tween-20), association 120 s, […]; settings: both partners purified
T7 construct: also called SARS-CoV-2 stem-helix peptide; SARS-CoV-2 stem peptide (25mer); source: synthetic peptide
T7 chain: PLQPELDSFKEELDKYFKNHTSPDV

[8] = target: T8, SARS-CoV-2 25-mer S2 stem peptide (as used for the crystal and for competition of neutralization) (SARS-CoV-2, UniProt P0DTC2); assay: crystal structure; settings: both partners purified
T8 construct: also called SARS-CoV-2 S2 peptide; SARS-CoV-2 stem peptide; source: synthetic peptide
T8 chain: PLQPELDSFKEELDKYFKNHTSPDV

Measured: binding result

B1: CC40.8 broadly neutralizing antibody (IgG) (antibody, V domains shown)
VH: EVQLLESGGGLVQPGGSLRLSCAASGFTFSSYVMTWARQAPGKGLEWVSAISGTGYTYYADSVKGRFTVSRDNSKNTLFLQMSSLRAEDTAVYYCAITMAPVVWGQGTTVTVSS
VL: SYELTQPPSVSVSPGQTARITCSGDALPKRYAYWYQQKSGQAPILVIYEDKKRPSGIPERLSGSKSGTVATLTISGAQVEDEADYYCYSTDSSGNHAVFGGGTQLTVL
notes: also called CC40.8 bnAb; CC40.8 mAb
not listed: [8]
binds: all other assays above

B2: CC40.8 Fab (Fab, V domains shown)
VH: EVQLLESGGGLVQPGGSLRLSCAASGFTFSSYVMTWARQAPGKGLEWVSAISGTGYTYYADSVKGRFTVSRDNSKNTLFLQMSSLRAEDTAVYYCAITMAPVVWGQGTTVTVSS
VL: SYELTQPPSVSVSPGQTARITCSGDALPKRYAYWYQQKSGQAPILVIYEDKKRPSGIPERLSGSKSGTVATLTISGAQVEDEADYYCYSTDSSGNHAVFGGGTQLTVL
notes: also called CC40.8 antibody Fab fragment
binds: [8]
